Sequences and labels used below:
B1: Intersectin-1, residues 909 to 971; numbered along this chain, Q15811 (parent)
chain: QGEKVEGLQAQALYPWRAKKDNHLNFNKNDVITVLEQQDMWWFGEVQGQKGWFPKSYVKLISG

± gives the uncertainty stated by the source.

This series covers variants of B1. Briefly: abundance fitness (aPCA) (normalised: wild type 0, dead -1); higher = more abundant; growth selection in yeast, the domain comes from the species named. As to conditions: Homo sapiens.
Take QGEKVEGLQAQALYPWRAKKDNHLNFNKNDVITVLEQQDMWWFGEVQGQKGWFPKSYVKLDSG [I61D]: the abundance fitness was -0.159 ± 0.14.
As for QGEKVEGLQAQALYPWRAKKDNHLNFNKNDVITVLEQQDMWWFGEVQGQKGWFPKSYVKLMSG [I61M], the figure is -0.383 ± 0.18; as for QGEKVEGLQAQALYPWRAKKDNHLNFNKNDVITVLEQQDMWWFGEVQGQKGWFPKSYVKLLSG [I61L], 0.002 ± 0.078.
The result for QGEKVEGLQAQALYPWRAKKDNHLNFNKNDVITVLEQQDMWWFGEVQGQKGWFPKSYVKLHSG [I61H] reads -0.438 ± 0.2.
The result for QGEKVEGLQAQALYPWRAKKDNHLNFNKNDVITVLEQQDMWWFGEVQGQKGWFPKSYVKLASG [I61A] reads -0.073 ± 0.097; that for QGEKVEGLQAQALYPWRAKKDNHLNFNKNDVITVLEQQDMWWFGEVQGQKGWFPKSYVKLESG [I61E], -0.088 ± 0.13.
For the variant QGEKVEGLQAQALYPWRAKKDNHLNFNKNDVITVLEQQDMWWFGEVQGQKGWFPKSYVKLFSG [I61F], the abundance fitness amounted to 0.08 ± 0.29.
The result for QGEKVEGLQAQALYPWRAKKDNHLNFNKNDVITVLEQQDMWWFGEVQGQKGWFPKSYVKLGSG [I61G] reads -0.207 ± 0.069.
As to QGEKVEGLQAQALYPWRAKKDNHLNFNKNDVITVLEQQDMWWFGEVQGQKGWFPKSYVKLKSG [I61K], the abundance fitness was -0.079 ± 0.16.
QGEKVEGLQAQALYPWRAKKDNHLNFNKNDVITVLEQQDMWWFGEVQGQKGWFPKSYVKPISG [L60P]: the abundance fitness was -0.152 ± 0.12.
Regarding QGEKVEGLQAQALYPWRAKKDNHLNFNKNDVITVLEQQDMWWFGEVQGQKGWFPKSYVKCISG [L60C], the abundance fitness was 0.029 ± 0.11.
The result for QGEKVEGLQAQALYPWRAKKDNHLNFNKNDVITVLEQQDMWWFGEVQGQKGWFPKSYVKFISG [L60F] reads -0.536 ± 0.17.
On to QGEKVEGLQAQALYPWRAKKDNHLNFNKNDVITVLEQQDMWWFGEVQGQKGWFPKSYVKMISG [L60M], for which the abundance fitness was -0.058 ± 0.2.
Turning to QGEKVEGLQAQALYPWRAKKDNHLNFNKNDVITVLEQQDMWWFGEVQGQKGWFPKSYVKSISG [L60S], the abundance fitness is -0.18 ± 0.095.
With QGEKVEGLQAQALYPWRAKKDNHLNFNKNDVITVLEQQDMWWFGEVQGQKGWFPKSYVKKISG [L60K], the abundance fitness is -0.1 ± 0.11.
With QGEKVEGLQAQALYPWRAKKDNHLNFNKNDVITVLEQQDMWWFGEVQGQKGWFPKSYVKDISG [L60D], the abundance fitness is -0.22 ± 0.23.
The result for QGEKVEGLQAQALYPWRAKKDNHLNFNKNDVITVLEQQDMWWFGEVQGQKGWFPKSYVKTISG [L60T] reads -0.162 ± 0.1; that for QGEKVEGLQAQALYPWRAKKDNHLNFNKNDVITVLEQQDMWWFGEVQGQKGWFPKSYVKRISG [L60R], -0.119 ± 0.087; that for QGEKVEGLQAQALYPWRAKKDNHLNFNKNDVITVLEQQDMWWFGEVQGQKGWFPKSYVKGISG [L60G], -0.18 ± 0.056.
For QGEKVEGLQAQALYPWRAKKDNHLNFNKNDVITVLEQQDMWWFGEVQGQKGWFPKSYVKIISG [L60I], the abundance fitness is -0.258 ± 0.25.
Take QGEKVEGLQAQALYPWRAKKDNHLNFNKNDVITVLEQQDMWWFGEVQGQKGWFPKSYVKVISG [L60V]: the abundance fitness was -0.06 ± 0.1.
As for QGEKVEGLQAQALYPWRAKKDNHLNFNKNDVITVLEQQDMWWFGEVQGQKGWFPKSYVKNISG [L60N], the abundance fitness was -0.254 ± 0.18.
QGEKVEGLQAQALYPWRAKKDNHLNFNKNDVITVLEQQDMWWFGEVQGQKGWFPKSYVKQISG [L60Q]: the abundance fitness worked out at 0.049 ± 0.12.
As for QGEKVEGLQAQALYPWRAKKDNHLNFNKNDVITVLEQQDMWWFGEVQGQKGWFPKSYWKLISG [V58W], the figure is -0.87 ± 0.15; as for QGEKVEGLQAQALYPWRAKKDNHLNFNKNDVITVLEQQDMWWFGEVQGQKGWFPKSYTKLISG [V58T], -0.395 ± 0.15; as for QGEKVEGLQAQALYPWRAKKDNHLNFNKNDVITVLEQQDMWWFGEVQGQKGWFPKSYSKLISG [V58S], -0.816 ± 0.23.
The result for QGEKVEGLQAQALYPWRAKKDNHLNFNKNDVITVLEQQDMWWFGEVQGQKGWFPKSYVALISG [K59A] reads -0.165 ± 0.14.
As to QGEKVEGLQAQALYPWRAKKDNHLNFNKNDVITVLEQQDMWWFGEVQGQKGWFPKSYVELISG [K59E], the abundance fitness is -0.128 ± 0.14.
As for QGEKVEGLQAQALYPWRAKKDNHLNFNKNDVITVLEQQDMWWFGEVQGQKGWFPKSYVILISG [K59I], the figure is -0.227 ± 0.21; as for QGEKVEGLQAQALYPWRAKKDNHLNFNKNDVITVLEQQDMWWFGEVQGQKGWFPKSYVSLISG [K59S], -0.122 ± 0.13.
QGEKVEGLQAQALYPWRAKKDNHLNFNKNDVITVLEQQDMWWFGEVQGQKGWFPKSYVYLISG [K59Y]: the abundance fitness was -0.378 ± 0.33.
As to QGEKVEGLQAQALYPWRAKKDNHLNFNKNDVITVLEQQDMWWFGEVQGQKGWFPKSYVLLISG [K59L], the abundance fitness is -0.331 ± 0.14.
As to QGEKVEGLQAQALYPWRAKKDNHLNFNKNDVITVLEQQDMWWFGEVQGQKGWFPKSYVRLISG [K59R], the abundance fitness was -0.043 ± 0.09.
As for QGEKVEGLQAQALYPWRAKKDNHLNFNKNDVITVLEQQDMWWFGEVQGQKGWFPKSYVTLISG [K59T], the figure is -0.31 ± 0.13.
The result for QGEKVEGLQAQALYPWRAKKDNHLNFNKNDVITVLEQQDMWWFGEVQGQKGWFPKSYVMLISG [K59M] reads -0.108 ± 0.23; that for QGEKVEGLQAQALYPWRAKKDNHLNFNKNDVITVLEQQDMWWFGEVQGQKGWFPKSYVDLISG [K59D], -0.615 ± 0.28; that for QGEKVEGLQAQALYPWRAKKDNHLNFNKNDVITVLEQQDMWWFGEVQGQKGWFPKSYVNLISG [K59N], -0.114 ± 0.43.
As for QGEKVEGLQAQALYPWRAKKDNHLNFNKNDVITVLEQQDMWWFGEVQGQKGWFPKSYVQLISG [K59Q], the figure is -0.109 ± 0.17; as for QGEKVEGLQAQALYPWRAKKDNHLNFNKNDVITVLEQQDMWWFGEVQGQKGWFPKSYVHLISG [K59H], -0.211 ± 0.33.
Turning to QGEKVEGLQAQALYPWRAKKDNHLNFNKNDVITVLEQQDMWWFGEVQGQKGWFPKSYVWLISG [K59W], the abundance fitness is -0.747 ± 0.24.
As for QGEKVEGLQAQALYPWRAKKDNHLNFNKNDVITVLEQQDMWWFGEVQGQKGWFPKSYVGLISG [K59G], the figure is -0.424 ± 0.11; as for QGEKVEGLQAQALYPWRAKKDNHLNFNKNDVITVLEQQDMWWFGEVQGQKGWFPKSYVCLISG [K59C], -0.192 ± 0.2.
As for QGEKVEGLQAQALYPWRAKKDNHLNFNKNDVITVLEQQDMWWFGEVQGQKGWFPKSYVVLISG [K59V], the figure is -0.234 ± 0.12.
